The supplement of paper PMC9732359
± gives the uncertainty stated by the source.

Assay: protein stability index of a GFP-peptide fusion (yeast GPS) (PSI 1-4); higher = more stable; sorted into four equal gates, so the index is relative within each strain
Outline: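 Each library plasmid carries Cherry plus GFP with a tiled 17-residue yeast protein peptide fused downstream, and the pooled library was carried in yeast. Mid-log cultures in leucine-free medium were sorted into four equal gates by GFP/Cherry ratio. Reads from Illumina sequencing of PCR-amplified plasmids from each gate were assigned to strains by barcodes. Per peptide, the protein stability index was computed as the summed products of gate read frequency and gate number.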

| Sequence | protein stability index (doa10∆) | protein stability index (pdr5∆) | protein stability index (san1∆) | protein stability index (ubr1∆) |
| --- | --- | --- | --- | --- |
| KSCEPVSISTSVKPHVV [SIR4] | 2.6 ± 0.069 | 2.97 ± 0.077 | 2.28 ± 0.11 | 2.42 ± 0.045 |
| KSDSQYRFYEYIYSQET [MED1] | 2.81 ± 0.068 | 2.44 ± 0.061 | 2.74 ± 0.12 | 2.58 ± 0.07 |
| KSHKQTIVTGGGSGNGD [RPP1] | 3.15 ± 0.27 | 3.55 ± 0.15 | – | 3.44 ± 0.2 |
| KSKAEELTQVPSARQKY [UBP6] | 2.19 ± 0.14 | 2.81 ± 0.12 | 2.38 ± 0.14 | 2.37 ± 0.16 |
| KSKLDQDSTSENVKIIN [RPN2] | 3.39 ± 0.07 | 3.3 ± 0.065 | 2.97 ± 0.074 | 3.18 ± 0.08 |
| KSLDAETEAEEDHMLKK [RPO21] | 3.15 ± 0.29 | 2.56 ± 0.21 | 3.19 ± 0.1 | 3.16 ± 0.094 |
| KSLKNNFYRPLLRSVLV [YML103C/NUP188] | 1.94 ± 0.051 | 1.87 ± 0.075 | 2.04 ± 0.085 | 2.29 ± 0.051 |
| KSMITSEGEQKSAEGNN [YAR002W/NUP60] | 3.2 ± 0.047 | 3.19 ± 0.045 | 3.25 ± 0.035 | 3.17 ± 0.041 |
| KSTPEGTLWAHVLKTVD [SNU114] | 2.1 ± 0.058 | 1.93 ± 0.048 | 2.43 ± 0.072 | 2.27 ± 0.038 |
| KTASLGNSKDDLLDMIQ [ISW2] | 1.62 ± 0.066 | 2.22 ± 0.13 | 3.36 ± 0.059 | 1.94 ± 0.059 |
| KTDTKVSFRTHNSHLSL [SRP21] | 3.03 ± 0.059 | 3.06 ± 0.053 | 2.92 ± 0.053 | 3.15 ± 0.048 |
| KTESQDVETRVQNLEQT [DPB4] | 3.49 ± 0.091 | 3.32 ± 0.065 | 3.2 ± 0.047 | 3.24 ± 0.048 |
| KTEYVLNDLNHLLVQLQ [REC8] | – | 3.02 ± 0.25 | – | 3.02 ± 0.094 |
| KTHRGLRKVACIGAWHP [RPL3] | 1.41 ± 0.064 | 3.19 ± 0.12 | 2.23 ± 0.087 | 2.92 ± 0.076 |
| KTKLWGFKWLNKLDEYH [LIN1] | – | – | – | 3.22 ± 0.2 |
| KTNIIEKAMDYAISIEN [RPN12] | 3.13 ± 0.18 | 3.25 ± 0.12 | 2.95 ± 0.1 | 3.45 ± 0.12 |
| KTQCPNYDTCGGESAYF [RPC11] | 3.21 ± 0.16 | 2.81 ± 0.26 | 3.24 ± 0.073 | 2.94 ± 0.15 |
| KTQFSWQYYYYTLTEEG [RPS10A] | 2.06 ± 0.065 | 2.33 ± 0.052 | 2.59 ± 0.054 | 2.35 ± 0.058 |
| KTRGPFHFRAPSRIFYK [RPL16A] | 2.99 ± 0.08 | 2.6 ± 0.062 | 2.56 ± 0.061 | 2.77 ± 0.057 |
| KTSCVVEKRIGKIVSQR [RGR1] | 2.76 ± 0.061 | 2.77 ± 0.048 | 3.12 ± 0.045 | 2.85 ± 0.036 |
| KTSLMDLLVIDSHKRIP [SNU114] | 2.43 ± 0.069 | 2.73 ± 0.078 | 2.74 ± 0.063 | 2.41 ± 0.054 |
| KTVCAIALILAIQMVDP [SMC3] | 1.11 ± 0.092 | 1.1 ± 0.072 | 2.08 ± 0.23 | 1.87 ± 0.081 |
| KTWLRNQEDEKNLQRES [RTT102] | – | – | – | 3.23 ± 0.19 |
| KVDWAREHFEKTVAVDS [RPL3] | 1.8 ± 0.18 | – | 1.54 ± 0.15 | 1.9 ± 0.15 |
| KVEKRVLGLTILRGEQI [SMB1] | 1.69 ± 0.078 | 2.15 ± 0.12 | 2 ± 0.17 | 1.95 ± 0.091 |
| KVEYKIVHDDPASDDIL [ITC1] | 3.05 ± 0.087 | 3.09 ± 0.086 | 3.05 ± 0.17 | 3.21 ± 0.091 |

| Sequence | protein stability index (doa10∆) | protein stability index (pdr5∆) | protein stability index (san1∆) | protein stability index (ubr1∆) |
| --- | --- | --- | --- | --- |
| KVIEQPITSETAMKKVE [RPL25] | 3.02 ± 0.092 | 2.94 ± 0.066 | 2.88 ± 0.066 | 2.93 ± 0.074 |
| KVISSDARGVIGVIAGG [RPL2A] | 2.81 ± 0.086 | 2.82 ± 0.091 | 2.85 ± 0.1 | 2.84 ± 0.12 |
| KVLLPSINISCVQLIKC [SWI1] | 1.27 ± 0.064 | 1.47 ± 0.051 | 1.17 ± 0.18 | 1.49 ± 0.051 |
| KVLTALSRLQKSGRING [SMC4] | – | 3.43 ± 0.2 | 3.29 ± 0.083 | 3.43 ± 0.19 |
| KVPQQAAGKRISHIEKR [SMC1] | 3.04 ± 0.11 | 3.14 ± 0.12 | 2.97 ± 0.095 | 3.15 ± 0.12 |
| KVSPSMCGVIVKQYNKK [SIN4] | 3 ± 0.19 | 2.98 ± 0.15 | 2.58 ± 0.15 | 3.15 ± 0.14 |
| KVTSTLLEQDTSTEKLY [PRE9] | 2.7 ± 0.056 | 3 ± 0.066 | 2.65 ± 0.063 | 2.63 ± 0.08 |
| KVVNFWLLHNGFSTGIG [RPO21] | 3.17 ± 0.16 | 2.25 ± 0.1 | 2.51 ± 0.13 | 1.37 ± 0.094 |
| KVVTKKYCEIMGDNSQL [SNF2] | 3.19 ± 0.17 | 3.25 ± 0.14 | 2.88 ± 0.15 | 2.98 ± 0.1 |
| KVWLDPNETSEIAQANS [RPL19A] | 3.16 ± 0.23 | 3.69 ± 0.24 | – | 3.04 ± 0.29 |
| KWSKKSMKDRAQHAVIL [RPS25A] | 2.37 ± 0.058 | 2.42 ± 0.095 | 2.73 ± 0.091 | 2.63 ± 0.054 |
| KYHNDLIEKEIQPKITE [SMC1] | 3.11 ± 0.13 | 3.05 ± 0.083 | 2.71 ± 0.073 | 3.07 ± 0.059 |
| KYIALQVIVDIFSVHGN [YCG1] | 1.26 ± 0.081 | 1.36 ± 0.14 | 1.14 ± 0.14 | 1.75 ± 0.16 |
| KYKPTPLYVMDEIDAAL [SMC4] | 2.45 ± 0.085 | 3.06 ± 0.11 | 3 ± 0.07 | 2.81 ± 0.057 |
| KYNRYEKRHKNVPVHVS [RPS11A] | 1.61 ± 0.041 | 1.66 ± 0.044 | 1.69 ± 0.092 | 1.94 ± 0.055 |
| KYPIFTGESWVKLTYNS [YDL088C/ASM4] | 1.82 ± 0.049 | 2.07 ± 0.068 | 2.07 ± 0.1 | 2.34 ± 0.058 |
| KYRQTKLSKEERAARVA [RPL5] | 2.7 ± 0.11 | 3.05 ± 0.071 | 2.97 ± 0.13 | 2.65 ± 0.07 |
| KYSKLVDNVTLESYKTQ [SRP72] | 3.54 ± 0.15 | 3.22 ± 0.16 | 3.42 ± 0.1 | 3.22 ± 0.11 |
| LAAPKKLNDSQRKTVNS [POP1] | 3.18 ± 0.075 | 2.98 ± 0.12 | 3.02 ± 0.065 | 3.34 ± 0.075 |
| LAAVPAAGPASAGGAAA [RPP2A] | 2.35 ± 0.085 | 1.58 ± 0.063 | 1.4 ± 0.26 | 1.61 ± 0.071 |
| LAFIPNILALNLVSLLI [YML031W/NDC1] | 1.83 ± 0.073 | 1.38 ± 0.044 | 1.44 ± 0.098 | 1.73 ± 0.047 |
| LAHSQHRCAIRSGALIK [SSN2] | 1.5 ± 0.058 | 1.22 ± 0.046 | 1.16 ± 0.13 | 1.16 ± 0.037 |
| LAHVDQIVDIRNKRAVQ [YJL039C/NUP192] | 2.35 ± 0.13 | 2.55 ± 0.12 | 2.76 ± 0.12 | 2.71 ± 0.13 |
| LAIADSPQKFETNLQTF [ECM29] | 2.96 ± 0.11 | 3.3 ± 0.098 | 3.25 ± 0.048 | 2.79 ± 0.091 |
| LAIIGDENPDLLGYTGI [PRE8] | 1.71 ± 0.06 | 1.93 ± 0.081 | 2.73 ± 0.098 | 1.93 ± 0.054 |
| LALERMVPKRSTIITKA [YCS4] | 1.28 ± 0.1 | 1.47 ± 0.066 | 1.16 ± 0.11 | 1.08 ± 0.091 |
